This note sets out measurements from patent US20180036405A1.

The target of experiment [1] is human dimeric EGFR (EGFR.mFc) (human). Nature of the experiment: SPR 37C, mAb captured by anti-human Fc, EGFR.mFc analyte.
The target of experiment [2] is human monomeric EGFR (EGFR.mmh) (human) (UniProt P00533). Put plainly: SPR 37C, mAb captured by anti-human Fc, EGFR.mmh analyte.
The target in experiment [3] is EGFR on A431 epidermoid carcinoma cells (human) (UniProt P00533). Put plainly: cell-based or functional assay.

A word on the Kd: it is a measure of binding affinity in units of concentration. As for “Control II: a commercially available fully human monoclonal anti-EGFR antibody designated as ABX-EGF”, in experiment [1], the Kd is 0.0423 nM and the t1/2 came to 3.3 h.
A word on the koff: it is the first-order rate constant of dissociation. The low end stands for a long-lived complex, the high end for a short-lived complex. By kon is commonly meant the second-order rate constant of association. Lower therefore signals slow association. In experiment [2], “Control I: a chimeric anti-EGFR antibody with heavy and light chain variable sequences of "mAb 225" as set forth in U.S. Pat. No. 7,060,808” came in with a Kd of 4.68 nM, a koff of 0.00738 s⁻¹, a kon of 1.58e+06 M⁻¹ s⁻¹ and a t1/2 of 2 min. In experiment [1], this substance had a Kd of 0.0303 nM, a koff of 0.000108 s⁻¹, a kon of 3.55e+06 M⁻¹ s⁻¹ and a t1/2 of 1.78 h. Also, in experiment [3], the ADCC EC50 amounted to 1.86e-12 Molar, the IC50 of A431 Proliferation is 3.35e-10 Molar and the Maximum Cell Killing (%) is 24%.
